Source: patent US20040014132A1 (AstraZeneca / MedImmune, published 2004)
Each block holds one binder with its values, some of them ahead of it.

Target: Human eotaxin (human, UniProt P51671 24-97)
Experiment: cell-based or functional assay

- IC50, inhibition of eotaxin-induced Ca^2+ flux in CCR3 cells (area under the curve, FLIPR): 5000 pM
- IC50, inhibition of eotaxin-mediated chemotaxis of CCR3 transfected L1.2 cells: 650 pM
B1: CAT-212 (scFv, part only; not given: scFv linker and myc/His tag, V domains shown, not shown: another chain or arm of the molecule; small tags and cut ends)
VH: QVQLVQSGGGVVQPGRSLRLSCAASGFTFSSYGMHWVRQAPGKGLEWVAVISYDGSIKHYADSVKGRFTISRDNSKNTLYLQMNSLRTDDTAVYYCAGDTDYGDIDPWGQGTMVTVSS
VL: DIQMTQSPSSVSASVGDRVTITCRASQDISSWLAWYQQKPGKAPKLLIYAASSLQSGVPSRFSGSGSGTDFTLTISSLQPEDFATYYCQQASSFPSITFGQGTRLEIK

- IC50, inhibition of eotaxin-mediated chemotaxis of CCR3 transfected L1.2 cells: 700 pM
- geometric mean IC50, inhibition of eotaxin-evoked shape change of human eosinophils (forward scatter): 714 pM
B2: CAT-213 (antibody, human IgG4, V domains shown)
VH: B1 VH
VL: DIQMTQSPSSVSASVGDRVTITCRASQDISSWLAWYQQKPGKAPKLLIYAASSLQSGVPSRFSGSGSGTDFTLTISSLQPEDFATYYCQQASSFPSITFGQGTRLEIKR
